Test results as given in the nanobody polyreactivity screen of Harvey et al. (2022).

test: yeast display, Sf9 membrane polyspecificity reagent, FACS + sequencing; frameworks hold sequencing errors
Procedure, shortened: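 Synthetic nanobody libraries on Saccharomyces cerevisiae BJ5465 were galactose-induced for 36–48 hours, stained 1 hour at 4 °C with 10% biotinylated, detergent-solubilized Sf9 membrane reagent and enriched on streptavidin microbeads. FACS then separated cells into low and high (top ~1%) gates by anti-HA (expression) and streptavidin (reagent binding) fluorescence. Genes were colony-PCR amplified, MiSeq 2 × 250 sequenced and CDR-length filtered. A clone's polyreactivity label is that of its gate of origin.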

Sequence	polyreactivity (PSR sort gate)
QVQLVESGGGLVQAGGSLRLSCAASGSIFSYYAMGWYRQEPGKERELVAAITWSGTRTYYADSVKGRFTISRDNAKNTVYLQMISLKPEDTAVYYCATEYDYWDDSYDSWGLGTQVTVSS	low polyreactivity
QVQLVESGGGLVQAGGSLRLSCAASGRTFNRNAMGWYRQAPGKARELVAAISRGGGGTFFADSVKWRFTISRDNAKNTVYLQMNSLKPEDTAFYFCAAVPIAADKANGYDYWGQGTQVTVSS	low polyreactivity
QDQLVESGGGLVQAGGSLRLSCAASGFTFYRYAMGWYRQAPGKERELVATIRNGGNTNYADSVKGRFTISRDNAKNTVYVQMNSLKPEDTAVYYCAKTVLAGMDWGQGTQVTVSS	high polyreactivity
QVQLEESGGGLVQAGGSLRLSCAASGRIFGYYAMGWYRKAPGKERELVAAIRRSGASTYYADSVKGRFTISRDNAENTVYLQMYSLKPVDTAVYYCSQAGYSPVYGYWGQGTQVTVSS	high polyreactivity
QVQLVESGGGLVQAGGSLRLSCAASGSTFPFYAMGWYRQAPGTERELVAAITSGGSTYADSVKGRFTISRDNAKNTVYLQMNSLKPEDTAVYYCAASWPRWWRFGYWGQGTQVTVSS	low polyreactivity
QVQLVESGGGLVQAGGSLRLICAASGSIFLNYAMGWYRQAPGKERELVASLRRIGGRTFYADSVKGSFTISRDNAKNTVYLQMNSLKPEDTAVYYCAAEYYYGLTVEYWGQGTQVTVSS	high polyreactivity
QVQLVESGGGLVQAGGSLRLSCAASGFTFPSNGMGWYRQAPGKERELVAVIDWSDDSTYYADSVKGRFTISRDNAKNTVYLQMNSLKPEDTAVYYCNARHYLYHGYIVPKYSYGYDYWGQGTQVTVSS	low polyreactivity
QVQLVESGGGLVQAGGSLSLSCASSGSIFVRNVMGWYRQAPWKERELVATIRTRGGSTSYADSVKGRFTISRDNAKNTVYLQMNSLTPEDTAVYYCNARLSYRSAWYYGGDRYDYWGQGTQVTVSS	high polyreactivity
QVQLVESGGGLVQAGGSLRLSCAASGLTFRTYAMGWYRQAPGKERELVAAISRSGSTTYYADSVKGRFTISRDNAKNTVYLQMNSLKPEDTAVYYCAAVGIRWLEYWGQGTQVTVSS	high polyreactivity
QVQLVESRGGLVQAGGSLRLSCAASGRTFGRNTMGWYRQAPGKERELVAAISISGTSTYYADSVKGRFTISRDNAKNTVSLQMNSLKPEDTAVYDCAARYIRGSYGMGYWGQGTQVTVSS	high polyreactivity
QVQLVESGGGLVQAGGSLRLSCAASGRIFPSYAMGWYRPAPGKERELVAAITRGSTTYYADSVKGRFTISRDNAKNTVYLQMNSLKPEDTAVYYCAAEENLAYYFKYYYWGQGTQVTVSS	low polyreactivity
QVQLVESGGCLVQAGGSLRLSCAASGSIFDSNAMGWYRQAPGKERELVAAITWSGGRTYYADSVKGRFTISLDNAKNTVYLQMNSLKPEDTAVYYCAARKYTLFWPYDYWGQGTQVTVSS	high polyreactivity
QVQLVESGGGIVQAGGSLRLSCAASGSIFYVYAMGWYRQAPGKERELVAAIYSGASTYYADSVKGRFTISRDNAKNTVYLQMNSLKPEDTAVYYCAKRWRRRFVDVWSLYDYWGQGTQVTVSS	low polyreactivity
QVQLVESGVGLVQAGGSLRLSCAASGSIFRYYAMGWYRQAPGKEREFVADITWSGTSTYYADSVKGRFTISRDNAKNTVYFQMNSLKPEDTAVFYCNKYRSYWSGPSYWREYDYWGQGTQVTVSS	high polyreactivity
QVQLVESWGGLVQAGGSLRLICAASGSTFYYNAMGWYRQAPGKEREFVAAISSRRGSTYYADSVKGRFTISRDNAKNTVYLQMNSLKQEDTAVYYCAAKYSHRYDWGQGTQVTVSA	high polyreactivity
QVQLVESGGGLVQAGGSLRLSCAASGFTFSRNAMGWYRQAPGKERELVAAIDSGGSTDYADSVKGRFTISRDNAKNTVYLQMNSLKPEDSAVYYCAKASSATRYVQLRQDYDYWGQGTQVTVSS	low polyreactivity
QVQLVESGGGLVQAGGSLRLSCAASGFTFFSNAMGWYRQAPGKERELVAAITSSGGSTYADSVKGRFTISRDNAKNTVYLQMNSLKPEDTAVYYCAADALAPPGGFKEYDYWGQGTQVTVSS	low polyreactivity
QVQLVESGGGLVQAGGSLRLSCAASGITFGYYAMGRYRQAPGKERELVAAISNSGRTYYADSVKGRFTISRDNAKNTVYLQMNSLKPEDTAVYYCAVRISGNWYDYWGQGTQVTVSS	low polyreactivity
QLQLVESGGGLVQAGGSLRLSCAATGFIFRYYVMGWYRQAPGKERELVAAITSGSTYADSVKGRFTISRDNAKNTVYLQMISLKPEDTAVYYCAAVKSQRGGPYSRGGKFGYWGQGTQVTVSS	high polyreactivity
QVQLVESGGGLVQAGGSLRLSCAASGSIFDSYAMGWYRQAPGKERELVAVISESGGTTYYADSVKGRFTISRDNAKNTVYLQMNSLKPEDTAVYYCAAVWYYQFGVWGYYWGQGTQVTVSS	low polyreactivity
QVQLVESGGGLVQAGGSLRLSCAASGRTFAIYAMGWSRQAPGKERELVAAIRWRDGSTYYADSVKGRFTISRDNAKNTVYLQMNSLKPEDTAVYYCAATSRVYVRGSYWKYGYWGQGTQVTVSS	high polyreactivity
QVQLVESGGGLVQAGGSLRLSCAASGRTFPYYVMGWYRQAPGKERELVAAISTTGGSTYYADSVKGRFTISRDNAKNTVYLQMNSLKPEDTAVYYCAARRLIRDNLGYDYWGQGTQVTVSS	high polyreactivity

Sequence	polyreactivity (PSR sort gate)
QVQLVESGGGLVQAGGSLRLSCAASGIFRRYAMGWYRQAPGKERELVAAISSSGGSTDYADSVKGRFTISRDNAKNTVYLQMNSLKPEDTAVYYCNAYDQHGWWSYAYDYWGQGTQVTVSS	high polyreactivity
QVQLVESGGGLVQAGGSLRLRCAASGSIFKPYAMGWYRQAPGNERELVAAINRGGTSTYYADSVKGRFTISRDNAKNTVYFQMNSLKPEDTAVYYCAAPNRYSVPMYYWGQGTQVTVSS	low polyreactivity
QVQLVESGGGLVQAGGGLRLSCAASGSIFRSNTMGWYRQAPGKERELVAGISYSGGSTYADSVKGRFTISRDNAKNTVYLQMNSLKPEDTAVYYCARRVYSYDVLYFSYYYWGQGTQVTVSS	low polyreactivity
QVQLVESGGGLVQAGGSLRVSCAASGIIFNRYAMGWSREAPGKERELVAAITSSGGSTHYADSVKGRFTISRDNAKNTVYLQMNSLKPEDTAVYYCAKQFPYNYRYYLHYYYWGQGTQVTVSS	low polyreactivity
QVQLVESGGGLVQAGGSLRLSCAASGRTFIRNVMGWYRQAPGKERELVAGITGGGNTYYADSVKGRFTISRDNAKNTVYLQMNSLKPEDTAVYECAVRYPSYGLSYVRYGYWGQVTQVTVSS	high polyreactivity
QVQLVESGGGLVQAGGSLRLSCAASGSIFSTNAMGWYRQAPGKERELVAAITYSGSLTYYADSVKGRFTISRDNAKNTVYLQMNSLKPEDTAVYYCAADTSWYSWWFDYWGQGTQVTVSS	low polyreactivity
QVQLQESGGGLVQAGGCLSCTASGTIFGQGDMGWSRQSPGKERELVATINDGASTYYADSVKGRFTISRDKAKNTVYLQKNSLKPDDTAVYYCAVLTDITTYFGYWGQGTQVTVSS	low polyreactivity
QVQLVESGGGLVQAGGSLRLSCAASGGTFRRYAMGWSRQAPGKERELVAAITRSGTNTYYADSVKGRFTISRDNAKNTVYLQMNSLNPEDTAVYYCAADGFGKYWGQGTQVTVSS	high polyreactivity
QVQLVESGGGLVQAGGSLRLSCAASGITFDTYAMGWYRQAPGKERELVAAISKSGGSTYYADSVKGRFTISRDNAKNTVYLQMNSLKPEDTAVYYCAKDAGSRTVREFGYWGQGTQVTVSS	high polyreactivity
QVQLVESGGGLVQAGGSLRLSCAASGSIFASNAMGWYRQAPGKERELVADISGTTGSTYYADSVKGRFTISRDNAKNTVYLQMNSLKPEDTAVYYCAADLVWVSTSYYYWGQGTLVTVSS	low polyreactivity
QVQLVESGGGLVQAGGSLRLSCAASGSTFDGYALGWYRQAPGKERELVAAISKNGGRTYYADSVKGRFTISRDNAKNTVYLQMNSLKPEDTAVYYCAKDIIKYDYDYWGQGTQVTVSS	low polyreactivity
QVQLVESGGGLDQAGGSLRLSSAAYGRIFRRYAMGWYRQSHGKERELVAAITSGGGSTYYADSVKGRFTISRDNAKNTVYLQMNSLKPEETAVYYCNKSSLEFVKGKYGYWGQGTQVTVSS	low polyreactivity
QVHLQECGDGLVQALGSQRLSCAARCYISGYYYMGWYRQAPGKERELVAGIDAFGSSTNYADCVKGRFTISRYNAKNTVYLQMKSLKPEDTALYYCAARPDGDRLFSYWGQGTQVTVFS	low polyreactivity
QVQLVESGGGLVLAGGSLRLSCAASGSTFVYYAMGWYRQAPGKERELVAAISRSGGSTYYADSVKGRFTISRDNAKNTVYLQMNSLKPEDTAVYYCAAKVRFTRRYDYWGQGTQVTVSS	high polyreactivity
QVQLVESGGGLVQAGGSLRLSCAASGRIFGIYAMGWHRQAPGKERELVASITDGTITNYADSVKGRFTISRDNAKNTVYLQMNSLKPEDTAVYYCAAGTQAHAYVVRPIEMDYSGQGTQVTVSS	low polyreactivity
QVQLVESGGGLVQAGGSLRLSCAASGRIFTDYDMGGYRHAPGKERELVASISGSDGNTDYADSVKGRFTISRDNAKNTVYLQMNSLKPEDTAVYYCAADLRVYDFFRYPETYGYWGQGTQVTVSS	low polyreactivity
QVQLVESGGGLVQAGGSLRLSCAASGNIFPYYAMGWYRQAPGKERELVASITWSGGRTYYADSVKGRFTISRDNAKNTVYLQMNSLKPEDTAVYYCARRRVYRWYTGDYWGQGTQVTVSS	low polyreactivity
QVQLVESGGGLVQAGGSLGLNCAASGFTFRVNAMGLYSQAPGKEREFVAAITASGGSTYYADSVKGRFTISRDNAKNTVYLLMNSLKPVDTAVYYCAADWWIYWYPDTGDYWGQRTQVTVSS	high polyreactivity
QVQLVESGRGLVQAGGSLRLSCAASGRIGKYAMGWYRQAPGKERELVATISSTGTTNYADSVKGRFTISRDNAKNTVYLQMNSLKPDDTAVYYCAAVRHKEYDYWGQGTQVTVSS	high polyreactivity
QVQLVESGGGLVQAGGSLRLSCAASGSIFYSYAMGWYIQAPGKERELVAVISSGGRTNYADSVKGRFTISRDNAKNTVYLQMNSLKPEDTAVYYCAARNYLYRYARAYDYWGQGTQVTVSS	high polyreactivity
QVQLEESGGGLVQAGGSLRLTCAGSGSISYRYDMGWYRQATGKEMELVAVITGSGGSTYYADSVKGRFTISRDNAKNTVYLQMNSLKPEDTAVYYCANEPGENWTVSWRDFDFWGQGTQVTVSS	low polyreactivity
